Data from patent US20130280734A1.

Target: human GLP-1 receptor (GLP-1R) (human) (UniProt P43220)
Experiment: cell-based or functional assay
Conditions: scale: times higher concentration than the active forms of GLP-1

Chain of human GLP-1 receptor (GLP-1R) (human) (P43220 24-463 limits assumed): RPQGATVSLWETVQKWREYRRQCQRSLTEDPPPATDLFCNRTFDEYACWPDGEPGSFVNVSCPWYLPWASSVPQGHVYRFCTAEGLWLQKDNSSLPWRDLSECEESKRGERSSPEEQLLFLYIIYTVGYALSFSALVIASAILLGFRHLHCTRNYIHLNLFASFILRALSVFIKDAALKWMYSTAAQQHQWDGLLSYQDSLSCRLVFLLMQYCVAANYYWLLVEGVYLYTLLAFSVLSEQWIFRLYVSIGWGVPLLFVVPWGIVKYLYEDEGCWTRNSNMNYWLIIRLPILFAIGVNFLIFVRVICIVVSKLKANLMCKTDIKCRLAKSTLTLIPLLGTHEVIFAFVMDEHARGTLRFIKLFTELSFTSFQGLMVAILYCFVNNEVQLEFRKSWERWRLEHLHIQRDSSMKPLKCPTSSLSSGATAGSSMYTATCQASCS

Substance | reactivity of the kit (aequorin luminescence), concentration relative to the active forms of GLP-1
GIP (gastric inhibitory peptide or glucose-dependent insulinotropic polypeptide) (from UniProt P09681 52-93) | > 1e+06
GLP-1 (9-36 amide) (from UniProt P01275 21-180) (peptide) | > 1e+06
GLP-2 (from UniProt P01275 146-178) (peptide) | > 1e+06
precursor GLP-1 (1-37) (from UniProt P01275 21-180) (peptide) | 10000
